Assay [1] concerns the target His-tagged recombinant full-length ApoE4, 10xHIS-ApoE4(1-299) (human) (UniProt P02649). Briefly: direct ELISA, target coated at 1 ug/ml, antibody in 3-fold dilutions from 500 ng/ml, OD 450 nm.
The target in assay [2] is recombinant C-terminal ApoE fragment G200-HIS (ApoE-G200-H299-10xHIS) (human) (UniProt P02649). The assay is described as above.
For assay [3] the target is unchanged. In words: direct ELISA, target coated at 1 ug/ml, reference antibody in 3-fold dilutions from 1000 ng/ml, OD 450 nm.
The target of assay [4] is recombinant full-length ApoE4 (aa 1-299; SEQ ID NO:45; Abcam cat. no. ab50243) (human) (UniProt P02649). The assay is described as above.
Chain of recombinant full-length ApoE4 (aa 1-299; SEQ ID NO:45; Abcam cat. no. ab50243) (human) (P02649 19-317 C130R limits assumed): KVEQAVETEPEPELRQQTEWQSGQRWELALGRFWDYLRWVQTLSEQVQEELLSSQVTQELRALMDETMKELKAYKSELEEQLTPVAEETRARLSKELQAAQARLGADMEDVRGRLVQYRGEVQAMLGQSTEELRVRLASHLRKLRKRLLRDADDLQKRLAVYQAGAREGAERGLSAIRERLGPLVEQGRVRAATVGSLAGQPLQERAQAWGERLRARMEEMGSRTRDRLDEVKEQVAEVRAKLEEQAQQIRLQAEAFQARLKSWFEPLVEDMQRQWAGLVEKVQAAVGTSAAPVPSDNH
Assay [5] addresses recombinant C-terminal ApoE fragment L198-HIS (ApoE-L198-H299-10xHIS) (human) (UniProt P02649). Briefly: direct ELISA; proteins coated at 0.1 uM, BSA peptides at 1 ug/ml; antibody in 3-fold dilutions from 3000 ng/ml; blank reduced OD 450 nm.
Assay [6] concerns the target recombinant full-length ApoE4 (aa 1-299; SEQ ID NO:45; Abcam cat. no. ab50243) (human) (UniProt P02649). The assay is described as above.
Assay [7] concerns the target recombinant C-terminal ApoE fragment A199-HIS (ApoE-A199-H299-10xHIS) (human) (UniProt P02649). The description is as above.
Assay [8] deals with recombinant full-length ApoE4 (aa 1-299; SEQ ID NO:45; Abcam cat. no. ab50243) (human) (UniProt P02649). The assay is described as above. This is another data set of the same source.
The target of assay [9] is recombinant C-terminal ApoE fragment G200-HIS (ApoE-G200-H299-10xHIS) (human) (UniProt P02649). In words: direct ELISA, second protocol; proteins coated at 0.1 uM, BSA peptides at 1 ug/ml; antibody in 3-fold dilutions from 3000 ng/ml; blank reduced OD 450 nm.
Assay [10] concerns the target recombinant full-length ApoE4 (aa 1-299; SEQ ID NO:45; Abcam cat. no. ab50243) (human) (UniProt P02649). The description is as above.

This passage reports EC50 (read off the curve) results from patent US20220242939A1.

Chain of recombinant C-terminal ApoE fragment G200-HIS (ApoE-G200-H299-10xHIS) (human) (P02649 other isoform, or with tags, fused parts or gaps limits assumed): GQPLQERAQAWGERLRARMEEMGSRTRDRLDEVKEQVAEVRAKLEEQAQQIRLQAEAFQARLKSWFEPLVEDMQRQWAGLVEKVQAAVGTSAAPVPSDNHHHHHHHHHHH
Chain of recombinant C-terminal ApoE fragment A199-HIS (ApoE-A199-H299-10xHIS) (human) (P02649 other isoform, or with tags, fused parts or gaps limits assumed): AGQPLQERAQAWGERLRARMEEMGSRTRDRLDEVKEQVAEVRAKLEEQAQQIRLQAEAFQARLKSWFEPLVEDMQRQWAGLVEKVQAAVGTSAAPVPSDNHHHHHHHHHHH
Chain of His-tagged recombinant full-length ApoE4, 10xHIS-ApoE4(1-299) (human) (P02649 other isoform, or with tags, fused parts or gaps limits assumed): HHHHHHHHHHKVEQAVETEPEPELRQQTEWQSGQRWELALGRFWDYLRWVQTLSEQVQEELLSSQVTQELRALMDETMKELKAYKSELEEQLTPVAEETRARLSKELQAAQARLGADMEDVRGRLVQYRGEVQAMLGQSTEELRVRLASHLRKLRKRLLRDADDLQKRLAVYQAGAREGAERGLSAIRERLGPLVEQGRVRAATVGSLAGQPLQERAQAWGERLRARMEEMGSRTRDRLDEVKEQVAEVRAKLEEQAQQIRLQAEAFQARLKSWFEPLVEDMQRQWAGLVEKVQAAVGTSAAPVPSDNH
Chain of recombinant C-terminal ApoE fragment L198-HIS (ApoE-L198-H299-10xHIS) (human) (P02649 other isoform, or with tags, fused parts or gaps limits assumed): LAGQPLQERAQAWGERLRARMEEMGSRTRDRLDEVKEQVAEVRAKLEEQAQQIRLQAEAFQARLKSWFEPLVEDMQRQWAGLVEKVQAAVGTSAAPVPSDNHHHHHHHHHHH

For the substance “reference anti-ApoE C-terminal antibody ApoE E-8 mouse monoclonal (Santa Cruz Biotechnology, cat. no. sc-393302)”, the EC50 (read off the curve) was 4 ng/mL in assay [1]; 4 ng/mL in [2]; 5 ng/mL in assay [3]; 4 ng/mL in assay [4]; 2 ng/mL in [5]; 8 ng/mL in assay [6]. Moreover, the EC50 (read off the curve) in assay [7] is 5 ng/mL; in assay [8] it was 6 ng/mL; in assay [9], 4 ng/mL; in [10] it was 4 ng/mL.
